Data published in patent US20200199244A1 (published 2020).

Biological target: human CD40 (human, UniProt P25942 21-277)
Test: cell-based or functional assay

Chain of human CD40 (P25942 21-277 limits assumed): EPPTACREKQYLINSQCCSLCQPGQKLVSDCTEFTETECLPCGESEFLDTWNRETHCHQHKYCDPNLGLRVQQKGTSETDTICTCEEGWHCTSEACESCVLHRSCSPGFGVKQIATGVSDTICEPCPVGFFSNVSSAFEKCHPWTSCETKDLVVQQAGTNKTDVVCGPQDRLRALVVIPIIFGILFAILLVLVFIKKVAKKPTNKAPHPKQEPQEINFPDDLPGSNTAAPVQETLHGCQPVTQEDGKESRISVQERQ

| Binder | hIZCD40L-driven Human B Cell Proliferation EC50 [nM] | CHO-hCD40L-driven DC Activation IL-12 EC50 [nM] | CHO-hCD40L-driven Human B Cell Proliferation EC50 [nM] | T-B cell MLR EC50 [nM] |
| --- | --- | --- | --- | --- |
| BMS3h-38-1 (other) VH: EVQLLGSGGGLVQPGGSLRLSCAASGFTFEEEEMIWVRQAPGKGLEWVSAISGSGGSTYYADSVKGRFTISRDNSKNTLYLQMNSLRAEDTAVYYCSKEPFRFDYWGQGTLVTVSS | 142 |  |  |  |
| BMS3h-38-201 (other) VH: EVQLLASGGGLVQPGGSLRLSCAASGFTFEEEEMIWVRQAPGKGLEWVSAISGSGGSTYYADSVKGRFTISRDNSKNTLYLQMNSLRAEDTAVYYCGKEPFYYDYWGQGTLVTVSS | > 70 | > 800 | > 7000 |  |
| BMS3h-33 (other) VH: EVQLLESGGGLVQPGGSLRLSCAASGFTFLSYPMHWVRQAPGKGLEWVSSIDSRGSVTYYADSVKGRFTISRDNSKNTLYLQMNSLRAEDTAVYYCAKGHSWTFDYWGQGTLVTVSS | > 7000 |  | > 7000 |  |
| BMS3h-28 (other) VH: EVQLLESGGGLVQPGGSLRLSCAASGFTFGDVPMSWVRQAPGKGLEWVSRIDPYGSNTYYADSVKGRFTISRDNSKNTLYLQMNSLRAEDTAVYYCAKGIMPSLTFDYWGQGTLVTVSS | > 7000 |  | > 7000 |  |
| BMS3h-37-1 (other) VH: EVQLLESGGGLVQPGGSLRLSCAASGFTFEWYEMQWVRQAPGKGLEWVSAISGDGYRTYYADSVKGRFTISRDNSMNTLYLQMNSLRAEDTAVYYCAKELGYFDYRGRGTLVTVSS | 250 |  |  |  |
| BMS3h-37-206 (other) VH: EVQLLESGGGLVQPGGSLRLSCAASGFTFEWYEMQWVRRAPGKGLEWVSAISGDGYRTYYADSVKGRFTISRDNSKNTLYLQMNSLRAEDTAVYYCAKGLEYFDYWGRGTLVTVSS | 5 | 23 |  |  |
| BMS3h-37-205 (other) VH: EVQLLESGGGLVQPGGSLRLSCAASGFTFEWYEMQWVRRAPGKGLEWVSAISGDGYRTYYADSVKGRFTISRDNSKNTLYLQMNSLRAEDTAVYYCAKELEYFDYWGRGTLVTVSS | 2 | 6.6 |  |  |
| BMS3h-37-11 (other) VH: EVQLLESGGGLVQPGGSLRLSCAASGFTFEWYEMQWVRKAPGKGLEWVSAISGDGYRTYYADSVKGRFTISRDNSKNTLYLQMNSLRAEDTAVYYCAKELGYFDYRGRGTLVTVSS | 8 |  |  |  |
| BMS3h-37-202 (other) VH: EVQLLESGGGLVQPGGSLRLSCAASGFTFEWYEMQWVRRAPGKGLEWVSAISGDGWRTYYADSVKGRFTISRDNSKNTLYLQMNSLRAEDTAVYYCAKELGYFDYWGRGTLVTVSS | 0.6 | 10 |  | 83 |
| BMS3h-37-213 (other) VH: EVQLLESGGGLVQPGGSLRLSCAASGFTFEWYEMQWVRRAPGKGLEWVSAISGDGYRTYYADSVKGRFTISRDNSKNTLYLQMNSLRAEDTAVYYCAKELLFFDYRGRGTLVTVSS | 0.7 |  |  |  |
| BMS3h-37-212 (other) VH: EVQLLESGGGLVRPGGSLRLSCAASGFTFEWYEMQWVRRAPGKGLEWVSAISGDGYRTYYADSVKGRFTISRDNSKNTLYLQMNSLRAEDTAVYYCAKELEFFDYWGRGTLVTVSS | 1 |  |  |  |
| BMS3h-37-207 (other) VH: EVQLLESGGGLVQPGGSLRLSCAASGFTFEWYEMQWVRRAPGKGLEWVSAISGDGYRTYYADSVKGRFTISRDNSKNTLYLQMNSLRAEDTAVYYCAKELAFFDYWGRGTLVTVSS | 4 | 15.5 |  |  |
| BMS3h-8 (other) VH: EVQLLESGGGLVQPGGSLRLSCAASGFTFPSEEMSWVRQAPGKGLEWVSRISADGANTYYADSVKGRFTISRDNSKNTLYLQMNSLRAEDAAVYYCAKGRVPDLLFDYWGQGTLVTVSS | > 7000 |  | > 7000 |  |

Continued, values first:

| hIZCD40L-driven Human B Cell Proliferation EC50 [nM] | CHO-hCD40L-driven DC Activation IL-12 EC50 [nM] | CHO-hCD40L-driven Human B Cell Proliferation EC50 [nM] | T-B cell MLR EC50 [nM] | Binder |
| --- | --- | --- | --- | --- |
| 4 | 29 | 1100 |  | BMS3h-38-205 (other) VH: EVQLLASGGGLVQPGGSLRLSCAASGFTFFAAEMIWVRQAPGKGLEWVSAISGSGGSTYYADSVKGRFTISRDNSKNTLYLQMNSLRAEDTAVYYCGKEPFRYDYWGQGTLVTVSS |
| 2 | 18 | 82 | 200 | BMS3h-38-211 (other) VH: EVQLLASGGGLVQPGGSLRLSCAASGFTFEEEEMIWVRQAPGKGLEWVSAISRQGGSTYYADSVKGRFTISRDNSKNTLYLQMNSLRAEDTAVYYCGKEPFRYDYWGQGTLVTVSS |
| 1 | 6 | 65 | 163 | BMS3h-38-215 (other) VH: EVQLLASGGGLVQPGGSLRLSCAASGFTFEEEEMIWVRQAPGKGLEWVSAISGLGWSTYYADSVKGRFTISRDNSKNTLYLQMNSLRAEDTAVYYCGKEPFRYDYWGQGTLVTVSS |
| 0.8 | 1.7 | 34 | 74 | BMS3h-38-217 (other) VH: EVQLLASGGGLVQPGGSLRLSCAASGFTFEEEEMIWVRQAPGKGLEWVSAISRRGYSTYYADSVKGRFTISRDNSKNTLYLQMNSLRAEDTAVYYCGKEPFRYDYWGQGTLVTVSS |
| > 7000 |  | > 7000 |  | BMS3h-52 (other) VH: EVQLLESGGGLVQPGESLRLSCAASGFTFSAYDMTWVRQAPGKGLEWVSRINPTGSYTYYADSVKGRFTISRDNSKNTLYLQMNSLRAEDTAVYYCAKAKIPNLVFDYWGQGTLVTVSS |
| > 7000 |  |  |  | BMS3h-193 (other) VL: DIQMTQSPSSLSASVGDRVTITCRASQTIERRLNWYQQKPGKAPKLLIYLASRLQSGVPSRFSGSGSGTDFTLTISSLQPEDFATYYCHQYASPPLTFGQGTKVEIKR |
| 277 |  |  |  | BMS3h-193-12 (other) VL: DIQMTQSPSSLSASVGDRVTITCRASQTIERRLNWYQQKPGKAPKLLIYLASRLQSGVPSRFSGSGSGTDFTLTISSLQPEDFATYYCHQYESPPLTFGQGTKVEIKR |
| 387 |  |  |  | BMS3h-193-16 (other) VL: DIQMTQSPSSLSASVGDRVTITCRASQAIERRLNWYQQKPGKAPKLLIYLASRLQSGVPSRFSGSGSGTDFTLTISSLQPEDFATYYCHQYASPPLTLGQGTKVEIKR |
| 233 |  |  |  | BMS3h-193-19 (other) VL: DIQMTQSPSSLSASVGDRVTITCRASQTIERRLNWYQQKPGKAPKLLIYLASRLQSGVPSRFSGSGSGTEFTLTISSLQPEDFATYYCHQYESPPLTFGQGTKVEIKR |
| > 7000 |  |  |  | BMS3h-88 (other) VH: EVQLLESGGGLVQPGGSLRLSCAASGFTFHETEMTWVRQAPGKGLEWVSAINRLGQDTYYADSVKGRFTISRDNSKNTLYLQMNSLRAEDTAVYYCAKGRIPGLVFDYWGQGTLVTVSS |
| > 7000 |  |  |  | BMS3h-112 (other) VH: EVQLLESGGGLVQPGGSLRLSCAASGFTFGESDMKWVRQAPGKGLEWVSSISPNGWDTYYADSVKGRFTISRDNSKNTLYLQMNSLRAEDTAVYYCAKSPSSRLKFDYWGQGTLVTVSS |
| > 7000 |  |  |  | BMS3h-207 (other) VH: EVQLLESGGGLVQPGGSLRLSCAASGFTFSNQDMTWVRQAPGKGLEWVSSIDSSGQLTYYADSVKGRFTISRDNSKNTLYLQMNSLRAEDTAVYYCAKVKSLARFDYWGQGTLVTVSS |
| > 7000 |  | > 7000 |  | BMS3h-48 (other) VH: EVQLLESGGGLVQPGGSLRLSCAASGFTFADHGMTWVRQAPGKGLEWVSGIGPSGEATYYADSVKGRFTISRDNSKNTLYLQMNSLRAEDTAVYYCAKDRIPNLVFDYWGQGTLVTVSS |
| > 7000 |  | > 7000 |  | BMS3h-61 (other) VH: EVQLLESGGGLVQPGGSLRLSCAASGFTFGTTEMAWVRQAPGKGLEWVSSIGSAGAWTYYADSVKGRFTISRDNSKNTLYLQMNSLRAEDTAVYYCAKIGGHPQGQFDYWGQGTLVTVSS |
| > 7000 |  | > 7000 |  | BMS3h-57 (other) VH: EVQLLESGGGLVQPGGSLRLSCAASGFTFSHEDMTWVRQAPGKGLEWVSSISPNGWDTYYADSVKGRFTISRDNSKNTLYLQMNSLRAEDTAVYYCAKRTRSKFDYWGQGTLVTVSS |
| > 7000 |  |  |  | BMS3h-208 (other) VH: EVQLLESGGGLVQPGGSLRLSCAASGFTFPESDMKWVRQAPGKGLEWVSSISPNGWDTYYADSVKGRFTISRDNSKNTLYLQMNSLRAEDTAVYYCAKPAQVLFDYWGQGTLVTVSS |
| > 7000 |  |  |  | BMS3h-102 (other) VH: EVQLLESGGGLVQPGGSLRLSCAASGFTFSEAEMNWVRQAPGKGLEWVSRITTDGDSTYYADSVKGRFTISRDNSKNTLYLQMNSLRAEDTAVYYCAKGRIPTLHFDYWGQGTLVTVSS |
